Key:
Experiment in all cases: AVEXIS screen signal:noise (double-corrected)
ADP315 = molecular target: T1, ADP315
T1 chain: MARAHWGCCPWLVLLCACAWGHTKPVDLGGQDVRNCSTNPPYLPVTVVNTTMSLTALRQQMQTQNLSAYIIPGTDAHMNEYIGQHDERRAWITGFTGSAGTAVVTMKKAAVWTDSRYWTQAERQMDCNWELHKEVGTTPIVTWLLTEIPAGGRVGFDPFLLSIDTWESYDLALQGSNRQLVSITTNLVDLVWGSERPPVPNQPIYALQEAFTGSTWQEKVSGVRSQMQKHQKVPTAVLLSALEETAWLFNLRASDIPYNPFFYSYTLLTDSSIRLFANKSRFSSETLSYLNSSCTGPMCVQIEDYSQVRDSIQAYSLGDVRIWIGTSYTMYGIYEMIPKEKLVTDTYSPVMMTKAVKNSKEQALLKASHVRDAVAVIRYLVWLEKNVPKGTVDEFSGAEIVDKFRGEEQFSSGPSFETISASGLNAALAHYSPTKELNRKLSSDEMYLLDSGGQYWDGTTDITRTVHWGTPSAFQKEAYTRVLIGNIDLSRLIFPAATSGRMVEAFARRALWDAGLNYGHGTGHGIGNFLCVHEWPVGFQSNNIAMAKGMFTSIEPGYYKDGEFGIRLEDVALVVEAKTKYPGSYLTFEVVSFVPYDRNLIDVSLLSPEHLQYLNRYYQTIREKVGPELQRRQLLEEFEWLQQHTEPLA

ADP368 = molecular target: T2, ADP368
T2 chain: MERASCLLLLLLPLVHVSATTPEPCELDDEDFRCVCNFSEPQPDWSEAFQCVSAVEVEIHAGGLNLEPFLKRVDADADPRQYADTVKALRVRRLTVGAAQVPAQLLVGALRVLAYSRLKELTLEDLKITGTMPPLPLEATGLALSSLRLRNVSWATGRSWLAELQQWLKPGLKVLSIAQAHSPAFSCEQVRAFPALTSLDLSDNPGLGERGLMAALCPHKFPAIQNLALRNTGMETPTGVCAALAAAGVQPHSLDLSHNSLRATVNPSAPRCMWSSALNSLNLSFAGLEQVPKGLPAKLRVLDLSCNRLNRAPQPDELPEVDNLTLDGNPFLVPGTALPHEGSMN

ADP366 = molecular target: T3, ADP366
T3 chain: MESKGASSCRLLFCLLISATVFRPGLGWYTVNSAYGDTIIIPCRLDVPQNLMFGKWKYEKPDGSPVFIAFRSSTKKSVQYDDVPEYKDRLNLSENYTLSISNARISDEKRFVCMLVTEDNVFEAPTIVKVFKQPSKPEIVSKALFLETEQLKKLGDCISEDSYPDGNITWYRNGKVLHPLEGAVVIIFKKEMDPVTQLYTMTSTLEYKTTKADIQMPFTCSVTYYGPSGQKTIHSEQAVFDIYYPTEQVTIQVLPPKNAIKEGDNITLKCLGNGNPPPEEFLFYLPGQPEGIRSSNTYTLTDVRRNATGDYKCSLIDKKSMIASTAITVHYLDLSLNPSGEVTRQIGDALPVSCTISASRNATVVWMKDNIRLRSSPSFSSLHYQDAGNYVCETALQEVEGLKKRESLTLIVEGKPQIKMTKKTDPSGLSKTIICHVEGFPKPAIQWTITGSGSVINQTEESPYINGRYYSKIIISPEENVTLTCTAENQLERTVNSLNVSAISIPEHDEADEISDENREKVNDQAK

ADP323 = molecular target: ADP323
ADP385 = molecular target: T4, ADP385
T4 chain: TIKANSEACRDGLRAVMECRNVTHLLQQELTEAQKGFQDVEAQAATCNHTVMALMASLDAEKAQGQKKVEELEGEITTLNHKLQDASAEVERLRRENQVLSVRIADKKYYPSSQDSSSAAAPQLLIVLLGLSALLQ

ADP318 = molecular target: T5, ADP318
T5 chain: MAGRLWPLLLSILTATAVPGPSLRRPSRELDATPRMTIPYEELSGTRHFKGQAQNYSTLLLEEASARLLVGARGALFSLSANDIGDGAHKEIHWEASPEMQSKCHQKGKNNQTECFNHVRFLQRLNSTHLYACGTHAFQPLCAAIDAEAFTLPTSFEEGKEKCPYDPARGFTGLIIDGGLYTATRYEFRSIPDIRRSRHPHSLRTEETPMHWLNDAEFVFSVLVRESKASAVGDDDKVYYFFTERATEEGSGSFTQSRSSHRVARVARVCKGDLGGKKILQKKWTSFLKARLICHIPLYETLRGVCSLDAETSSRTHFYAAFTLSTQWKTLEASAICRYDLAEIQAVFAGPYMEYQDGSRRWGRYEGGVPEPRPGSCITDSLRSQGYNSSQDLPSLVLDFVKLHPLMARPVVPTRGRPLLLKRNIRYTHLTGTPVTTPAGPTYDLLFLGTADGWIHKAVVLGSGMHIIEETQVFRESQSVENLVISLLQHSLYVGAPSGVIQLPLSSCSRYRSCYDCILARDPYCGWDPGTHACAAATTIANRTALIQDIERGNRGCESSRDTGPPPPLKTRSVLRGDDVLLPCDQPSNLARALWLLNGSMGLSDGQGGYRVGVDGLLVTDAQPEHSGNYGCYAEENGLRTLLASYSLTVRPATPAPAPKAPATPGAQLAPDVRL

ADP262 = molecular target: T6, ADP262
T6 chain: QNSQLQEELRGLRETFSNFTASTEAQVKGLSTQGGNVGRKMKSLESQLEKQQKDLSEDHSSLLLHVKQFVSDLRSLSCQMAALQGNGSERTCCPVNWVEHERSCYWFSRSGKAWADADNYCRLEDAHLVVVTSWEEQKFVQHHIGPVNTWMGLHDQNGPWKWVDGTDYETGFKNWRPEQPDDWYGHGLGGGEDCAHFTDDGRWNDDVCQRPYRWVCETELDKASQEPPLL

ADP378 = molecular target: T7, ADP378
T7 chain: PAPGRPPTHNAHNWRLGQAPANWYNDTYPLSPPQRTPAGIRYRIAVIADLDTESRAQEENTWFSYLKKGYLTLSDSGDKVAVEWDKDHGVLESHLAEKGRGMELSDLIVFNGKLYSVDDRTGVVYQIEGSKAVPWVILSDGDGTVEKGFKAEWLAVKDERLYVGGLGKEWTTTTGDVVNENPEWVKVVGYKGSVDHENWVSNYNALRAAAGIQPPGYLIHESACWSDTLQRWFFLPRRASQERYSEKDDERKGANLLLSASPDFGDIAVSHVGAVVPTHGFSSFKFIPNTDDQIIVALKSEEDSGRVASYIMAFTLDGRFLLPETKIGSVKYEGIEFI

B1: ADP247 (protein)
chain: GIISGRINIAAEFHINIFVKDYFKKKKLTFVNFVSLCPKGFNIENNKCIPCPIGLYYSNSKSINQCIPCENYRKHSTTLYNSAKSKTECLCKPGYFLKDKRCVKCVAGFYKDQIGNFKCQGTCENTKMSIEVGAKNYEELKCTCKDGYFTEKKKKECIPCPFGNYCIYNPKVKYKADIIRCKNNKLTLHRGSKSPNDCLCSQGYYHDYKMDECELCNYDQYKSHISNDPCVPFISKSLVNQEYLINEPYFQYTNIYIKQTSNIIFAPKKGSKMFHEATLCETGYSYSMNKAICSICRYNNYCLGLDHSSIICPKNSITIKLKSVSALDCLCIKGYGRIIINTNQAFTISCIPCPYNTFQPHHSYGKCIPCPPHTFTKITGATSITECIPKMGYYNIAFEYIYEYSKQQMLNSIPHFIQYYHYFLKNQYEHFA
modifications: bait human Fc-tagged dimer; N-glycosylation sequons mutated in Plasmodium baits
binding score (ADP315): 5.78
binding score (ADP368): 5.45
binding score (ADP366): 5.26
binding score (ADP323): 5.73

B2: ADP195 (protein)
chain: FRKYDKNKNKILISHSINNNNNAIKNNNNNNNAIKNNNNNNNAIKNNNNNNNAFSATSFSSEKNKNKAYTNVLKKKNIYIREESNKATNIKEDEEKNKKINNNDKETNYAFLSLKFFPFILTSLLHTGINQIPRNTEIELYEFEKSPMIRHMLVAEERKN
modifications: bait human Fc-tagged dimer; N-glycosylation sequons mutated in Plasmodium baits
binding score (ADP385): 18.7
binding score (ADP318): 5.72

B3: ADP239 (protein)
chain: NNLDKNKNFIQYKNFKKNKAYKYKNNNNNIIIINSHSHSNSHSNSHSHSNSHSNSHSHSNSHSNSHSHSNSHSHSHSNSHSNSHSHSSTQNSLYHDTNQANFLKPTSFFLYKHHVYFNQKYKKDPNILNKLKVPRNHIFHINKCDLNYYIQNYEFFFFFPDYYEYSHLYIRLDKLFYFQRCGCDTNIKKTKKRNQNIFNNMLGMKEKDTYLQNEICDIYWNYLKDDNTYDKYNFAIINYIKNIIKKMYRYLYIYKVFVLKQFYRIVYYNQGIRNFYYMLFSYIYNKGSIIYNYNQMYFKKHRKKQTIIRSKRFMNEHIKEEDVDYNIVKDEKDKSIQSTEQKSYLKNNAIQYFQCFLDKAMENKNAENELDKWIDPQSKSCYCSEEFAEPCTSEDLVDINNINQIMDNAFCEYNNNDNNNNDNNKNNNNNINNIINIYDNNILGDNVKNIFVALSEYKILQCNDKEKKDIIKKEQLYNYCKYGLNIWDNKNMYDYLNCLNVISYNKKDDKTCIRKCENIKKLCNIVAQFYSFEVCKKYYENNKHTEDIYINNFKYFSDHCKYIDPTNRGLVLCKHKNVECVYSQWSEWSTCSKTCIENEYDTNSARTRTRILLNKFEVPSKSCSFIINEKNNLMDINFCSYLPFCNKNNDMKKKDDERIMPFVISIKEIEKLNTLKYLNNDDNDLLNENYKNYESVHKNNECKVTDMYQYEYAISYNEKNKACSCPNNQAPCYFKDIYNSESWKKSLHILCKHNPHINVITADYIIIDCNMAISIKKKEIAVNTYLAMTFNCHSDIFQYIFCAKNIQSIRTN
modifications: bait human Fc-tagged dimer; N-glycosylation sequons mutated in Plasmodium baits
binding score (ADP262): 6.08

B4: ADP244 (protein)
chain: GIITGKLNYFGTFSLKIFAKTYFQYKINTYSNLYSYCGISQEYNKAKSTCESCPIGTFWNSEKLLCENCQKYIENTATLKNGAKLKTDCLCSPGYEYSDKSSKCEKCKPGYYKKSVGNFICIKGCPINEKSITYGAKSYAEMDCKCIEGYYRKEDKCVLCLSNYYCPGNELIKPCDKNKISKEGVIHKNDCICKENYIKDNKNNNCVYCASIAKILGKPIYCSLCDPIYFHEDIYKNIFLLPNNIHNYGLINNIYNYDEDLSLQGNIMKYAYFHKTTNIERNFAHYINIKNIYHTFNNNINNYDYLTNSKFAIEIDIPEPKKCIFCDSGYYIKKKKCISCTTKYCEGFNHNPKACPKNSVVNKMKASSIFDCSCKRGYGILNERRNAYSNTITCQICPQNFFKHIISDDSCFPCPLYTYTLNQGATSILQCLPKKGYFIYMFKSINIDYLRYKFDINTENRIYNYFENNNKIFDEDVYNFFLNKQYSKFFYNTENK
modifications: bait human Fc-tagged dimer; N-glycosylation sequons mutated in Plasmodium baits
binding score (ADP378): 6.32

— publication PMC11098746 (2024)
